Residue numbers refer to the chain shown, from its start. Values belong to the binder of their own block, whether it stands above or below them.
Experiments:
[1] = biological target: T1, recombinant human proprotein convertase subtilisin/kexin 9 (hPCSK9), his-tagged (Homo sapiens, UniProt Q8NBP7); assay: SPR; hPCSK9 (10 μg/mL in 10 mM sodium acetate pH 4.0) on flow cell 2 of a CM5 chip at 790 RU, flow cell 1 blank; VHH-based proteins injected in two-fold dilutions (five or three points); 25 °C, Biacore T200; binding 120 s, dissociation 300 s or 350 s; regeneration glycine pH 2.3; conditions: both partners purified
T1 construct: human PCSK9, recombinant, his-tagged (Sinobiological); No catalogue number is printed; also called human PCSK9; source: bought: Sinobiological, China

[2] = biological target: T1, recombinant human proprotein convertase …; assay: as above; conditions: both partners purified; remark: listed apart in the source

T1 sequence (Q8NBP7 153-692): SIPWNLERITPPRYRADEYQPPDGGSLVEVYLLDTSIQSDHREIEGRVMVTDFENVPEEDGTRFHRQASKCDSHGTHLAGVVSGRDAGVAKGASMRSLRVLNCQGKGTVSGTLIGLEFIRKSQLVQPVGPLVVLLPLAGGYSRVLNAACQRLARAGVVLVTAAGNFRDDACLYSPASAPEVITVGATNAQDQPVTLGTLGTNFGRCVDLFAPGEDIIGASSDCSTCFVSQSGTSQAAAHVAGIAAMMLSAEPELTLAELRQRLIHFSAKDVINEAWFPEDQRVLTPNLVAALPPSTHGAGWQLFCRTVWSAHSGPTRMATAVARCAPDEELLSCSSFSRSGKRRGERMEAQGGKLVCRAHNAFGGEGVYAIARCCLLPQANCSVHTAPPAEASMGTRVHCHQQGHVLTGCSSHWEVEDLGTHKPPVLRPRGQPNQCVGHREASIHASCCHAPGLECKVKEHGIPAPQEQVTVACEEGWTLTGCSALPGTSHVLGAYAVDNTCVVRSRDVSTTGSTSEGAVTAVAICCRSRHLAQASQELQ

B1: VHH-Z1 (VHH-B11 humanized mutant) (VHH)
VHH: EVQLLESGGGLVQPGGSLRLSCTVSGYTYSSNCMGWFRQAPGKEHEGVSSIYIGGGSTYYADSVKGRFTISRDNSKNTLYLQMNSLRAEDTAVYYCAVGCQGLVDFGYWDQGTQVTVSS
notes: as the chain of m2, mutated at several of the 17 hotspots; has 80Pro in FR3; source: P. pastoris X33, secreted, purified
binding result [1]: binds

B3: humanized VHH-B11 (Hu-B11), mutated at all 17 hotspots (VHH)
VHH: B1 VHH with T23A, V24A, F37V, E44G, H45L, G47W
notes: as the chain of m2 with 17 humanising mutations in FR1-3; source: P. pastoris X33, secreted, purified
Kd [1]: 39.7 nM

B4: VHH-B11 (monovalent camelid nanobody against hPCSK9) (VHH)
VHH: QVQLQESGGGSVQAGGSLRLSCTVSGYTYSSNCMGWFRQAPGKEHEGVASIYIGGGSTYYADSVKGRFTISQDNAKNTVYLQMNSLKPEDTAMYYCAVGCQGLVDFGYWDQGTQVTVSS
notes: VHH-B11, llama nanobody; Also expressed in E. coli and HEK293F; also called VHH-B11 Ab; wild type VHH-B11
Kd [2]: ~4.4 nM

Now from value to binder:

binding result [1]: binds
B2: VHH-Z5 (VHH-B11 humanized mutant) (VHH)
VHH: B1 VHH with T23A, V24A, R72Q, L79V
notes: as the chain of m2, mutated at several of the 17 hotspots; has 87Val in FR3; source: P. pastoris X33, secreted, purified

binding result [1]: binds
B5: VHH-Z3 (VHH-B11 humanized mutant) (VHH)
VHH: B1 VHH with T23A, V24A, S49A, R72Q, S75A
notes: as the chain of m2, mutated at several of the 17 hotspots; has 54Ala in FR2 and 83Ala in FR3; source: P. pastoris X33, secreted, purified
